This note sets out measurements from patent US20190194722, “METHOD” (Oxford Nanopore Technologies Ltd., published 2019).

In data set [1] the target is T1, MuA transposase (UniProt P07636 P07636:1-663). The data set can be described thus: MuA stays bound after transposition into PhiX174 at room temperature (no Bioanalyser peak); released at 75 C; 10 mM MgCl2, 110 mM NaCl, pH 8. The conditions noted are these: tags: ThermoFisher Scientific; chain copies: 4; 3' overhang on bottom strand. How it is done: Transpososome 1 and transpososome 2 were each mixed to 50 nM with 1.5 ug of PhiX174 RFI DNA (New England Biolabs) in 25 mM Tris.HCl pH8, 110 mM NaCl and 10 mM MgCl₂ in a 30 ul reaction in a 0.2 ml PCR tube. Each reaction was incubated at room temperature for 2 minutes before being split […] to form 3 tubes of 10 uls for each. 1 tube of each transpososome was incubated at 75° C. for 5 minutes, 1 tube of each transpososome was left at room temperature for 5 minutes with nothing added. Hel308Mbu-E284C/S615C-STrEP(C) (1 uM) was added to the final tubes along with 10 mM of ATP (Sigma-Aldrich) and incubated at room temperature for 5 minutes. 1 ul of each reaction was then analysed on the Agilent 2100 Bioanalyser 12,000 bp setting, along with 1 ul of unmodified PhiX.

For data set [2], the target named is T1, MuA transposase. The experiment in a line: MuA stays bound at room temperature; tagmentation peak only after 75 C; MgCl2 buffer. Particulars: tags: ThermoFisher Scientific; chain copies: 4; 5' bottom strand flap, 12 nt 5' tail on top strand, 10 nt 3' tail on bottom strand. Here is the method:
A transposome complex was formed but addition of 1 ul of the MuA adapter, 4.5 ul of nuclease free water, 2 ul of 5× transposome buffer (125 mM Tris pH 8, 550 mM NaCl, 2.5 mM EDTA, 50% glycerol, 0.25% Triton-X100) and 2.5 ul of concentrated MuA transposase (Thermofisher). The mixture was then incubated at 30° C. for 1.5 hours.
A transposition reaction, containing 10 ul of 5× transposase buffer (125 mM Tris pH 8, 550 mM NaCl, 50 mM MgCl2), 5 ul transposome, 2.5 ug PhiX RFI (NEB) and nuclease free water to 50 ul, was then carried out at room temperature for 10 minutes. After 10 mins 6.25 ul of 100 mM rATP was added and the reaction was split into 5×11.25 ul. To sample (i) and (ii) 1.25 ul of nuclease free water was added; to sample (iii) 1.25 ul of Hel308Mbu-E284C-STrEP(C) (SEQ ID NO: 10 with mutation E284C with a streptavidin tag attached at its C terminus) was added; to sample (iv) 1.25 ul of T4 Dda—(E94C/F98W/C109A/C136A/A360C) (SEQ ID NO: 97 with mutations E94C/F98W/C109A/C136A/A360C and then (ΔM1)G1G2 (where (ΔM1)G1G2=deletion of M1 and then addition G1 and G2), was added; to sample (v) 1.25 ul of UvrD Eco-(E117C/M380C)-STrEP (SEQ ID NO: 122 with mutations E177C/M380C with a streptavidin tag attached at the C terminus). Samples (i), (iii), (iv) and (v) were then left at room temperature for 10 mins while sample (ii) was left at 75° C. for 10 mins. […]

T1 sequence (P07636 whole entry, one chain of several): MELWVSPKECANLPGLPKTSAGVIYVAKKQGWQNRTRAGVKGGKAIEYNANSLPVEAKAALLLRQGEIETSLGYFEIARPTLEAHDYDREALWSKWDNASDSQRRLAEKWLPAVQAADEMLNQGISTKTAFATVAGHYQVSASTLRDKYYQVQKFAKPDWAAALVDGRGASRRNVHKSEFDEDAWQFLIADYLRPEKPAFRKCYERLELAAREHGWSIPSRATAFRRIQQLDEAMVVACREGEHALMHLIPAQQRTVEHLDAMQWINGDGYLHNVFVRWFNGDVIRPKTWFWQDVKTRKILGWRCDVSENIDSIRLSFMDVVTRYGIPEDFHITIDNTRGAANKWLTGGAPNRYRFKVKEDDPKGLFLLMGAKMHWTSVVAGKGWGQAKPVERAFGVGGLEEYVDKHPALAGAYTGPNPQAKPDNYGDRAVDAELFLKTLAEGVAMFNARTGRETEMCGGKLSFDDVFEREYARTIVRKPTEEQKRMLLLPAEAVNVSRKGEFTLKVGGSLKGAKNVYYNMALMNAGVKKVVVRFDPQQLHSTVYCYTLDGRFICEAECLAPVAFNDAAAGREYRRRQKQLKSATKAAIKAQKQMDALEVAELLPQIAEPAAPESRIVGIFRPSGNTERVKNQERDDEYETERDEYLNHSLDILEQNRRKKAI

B1: transposon 2 (dsDNA)
DNA 1: GTTTTCGCATTTATCGTGAAACGCTTTCGCGTTTTTCGTGCGCCGCTTCA
DNA 2: GATCTGAAGCGGCGCACGAAAAACGCGAAAGCGTTTCACGATAAATGCGAAAACTTTTTTTTTT
Regarding B1, the binding result with MuA transposase [1] was “binds”.

B2: MuA adapter (Example 2) (dsDNA)
DNA 1: B1 DNA 2
DNA 2: TGCTGATATTGCGTTTTCGCATTTATCGTGAAACGCTTTCGCGTTTTTCGTGCGCCGCTTCA
B2: the binding result with MuA transposase [2] is “binds”.
